Experimental data taken from PMC6415948.

Assays:
Experiment in all cases: SPR
[1] = target: Human IgG1 Fc, afucosylated, mixed N-glycans (G0, G1 and G2) (human)
[2] = target: Human IgG1 Fc, G0 N-glycan (agalactosylated, afucosylated) (human)
[3] = target: Human IgG1 Fc, fucosylated, mixed N-glycans (predominantly G0F/G1F/G2F) (human)
[4] = target: Human IgG1 Fc, G2F N-glycan (digalactosylated, core-fucosylated) (human)
[5] = target: Human IgG1 Fc, G0F N-glycan (agalactosylated, core-fucosylated) (human)

Row | Substance | Kd [1] [nM] | Kd [2] [nM] | Kd [3] [nM] | Kd [4] [nM] | Kd [5] [nM]
1 | CD16a N38Q/N45Q/N74Q/N169Q, Man5 glycoform (receptor) | – | – | – | – | 360
2 | CD16a, wild type, complex-type glycoform (receptor) | 38 | – | 245 | – | –
3 | CD16a, wild type, following treatment with Endoglycosidase F1 (N-glycans truncated to a single (1)GlcNAc) (receptor) | – | 1.7 | – | 2 | 3.7

Other lines, results leading:

Row | Kd [1] [nM] | Kd [2] [nM] | Kd [3] [nM] | Kd [4] [nM] | Kd [5] [nM] | Substance
4 | 2.5 | 2.4 | 57 | 9.9 | 18 | CD16a (Fc γ receptor IIIa), wild type, Man5 glycoform
5 | – | 1.3 | – | 1.6 | 2.9 | CD16a N38Q/N74Q/N169Q following treatment with Endoglycosidase F1 (N-glycans truncated to a single (1)GlcNAc) (receptor)
6 | 4 | – | 64 | – | – | CD16a, wild type, Man9 glycoform (receptor)
